Source: publication doi:10.1101/791277, “Assembly of novel, nuclear dimers of the PI3-Kinase regulatory subunits underpins the pro-proliferative activity of the Cdc42-activated tyrosine kinase, ACK” (bioRxiv, 2019)
Where no end group is shown, it is not given here. [ ]: non-standard residue; d: D form. The star is where a group is joined. 5FAM = O=C1OC2(c3ccc(O)cc3Oc3cc(O)ccc32)c2ccc(C(=O)*)cc21; pY = N[C@@H](Cc1ccc(OP(=O)(O)O)cc1)C(=O)O

What was measured:
p85α cSH2 (614-720) = biological target: T1, p85α cSH2 (614-720) (human, UniProt P27986 614-720); assay: fluorescence polarisation; 5-FAM peptide at 20 nM (CD28, p85α, phospho-p85α) or 40 nM (p85β, phospho-p85β), SH2 domain titrated; 298 K; anisotropy fitted to a single site binding isotherm; conditions: both partners purified
T1 construct: PI3-Kinase regulatory subunit p85α, C-terminal SH2 domain, residues 614-720; also called cSH2 domain of p85α; source: E. coli, purified (glutathione-agarose, HRV 3C cleavage, S75 size exclusion)

p85β cSH2 (603-712) = biological target: T2, p85β cSH2 (603-712) (mouse, UniProt O08908 603-712); assay: as above; conditions: both partners purified
T2 construct: PI3-Kinase regulatory subunit p85β, C-terminal SH2 domain, residues 603-712; also called cSH2 domain of p85β; source: E. coli, purified (glutathione-agarose, HRV 3C cleavage, S75 size exclusion)
T2 sequence (looked up): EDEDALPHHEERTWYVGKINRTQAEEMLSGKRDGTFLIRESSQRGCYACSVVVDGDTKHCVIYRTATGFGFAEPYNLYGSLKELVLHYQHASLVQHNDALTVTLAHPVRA

T1 sequence (P27986 614-720): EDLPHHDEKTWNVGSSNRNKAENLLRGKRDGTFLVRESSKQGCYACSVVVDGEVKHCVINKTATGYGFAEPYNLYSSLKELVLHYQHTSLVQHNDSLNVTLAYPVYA

B1: CD28 peptide, [5-FAM]-SD-[pY]-MNMTP (peptide)
peptide: 5FAM-SD[pY]MNMTP
notes: known SH2 target phosphopeptide from CD28; also called control peptide from CD28; source: synthetic peptide, bought: Biomatik
binding result (p85α cSH2 (614-720)): binds
binding result (p85β cSH2 (603-712)): binds
